Source: paper PMC2944808, “Binding between Crossveinless-2 and Chordin Von Willebrand Factor Type C Domains Promotes BMP Signaling by Blocking Chordin Activity” (PLoS ONE, 2010)

B1: CV2 ΔClip (domain or fragment)
chain: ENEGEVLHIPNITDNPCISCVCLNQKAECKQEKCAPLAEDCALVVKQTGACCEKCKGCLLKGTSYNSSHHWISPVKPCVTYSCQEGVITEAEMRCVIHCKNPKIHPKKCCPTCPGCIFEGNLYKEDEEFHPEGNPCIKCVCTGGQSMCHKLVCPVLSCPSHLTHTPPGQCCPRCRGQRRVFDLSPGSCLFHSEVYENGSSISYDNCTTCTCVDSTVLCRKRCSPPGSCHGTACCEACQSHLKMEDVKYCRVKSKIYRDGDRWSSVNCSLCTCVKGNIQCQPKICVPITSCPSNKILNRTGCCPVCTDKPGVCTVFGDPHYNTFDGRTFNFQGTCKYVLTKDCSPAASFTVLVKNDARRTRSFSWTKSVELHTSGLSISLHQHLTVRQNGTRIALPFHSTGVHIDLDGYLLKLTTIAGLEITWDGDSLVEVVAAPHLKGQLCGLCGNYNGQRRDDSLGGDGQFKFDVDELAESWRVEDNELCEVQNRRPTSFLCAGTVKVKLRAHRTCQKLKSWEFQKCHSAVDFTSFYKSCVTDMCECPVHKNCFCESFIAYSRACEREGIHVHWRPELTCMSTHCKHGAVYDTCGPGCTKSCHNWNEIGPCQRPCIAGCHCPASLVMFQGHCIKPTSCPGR
B2: CV2-VWC1-4 (domain or fragment)
chain: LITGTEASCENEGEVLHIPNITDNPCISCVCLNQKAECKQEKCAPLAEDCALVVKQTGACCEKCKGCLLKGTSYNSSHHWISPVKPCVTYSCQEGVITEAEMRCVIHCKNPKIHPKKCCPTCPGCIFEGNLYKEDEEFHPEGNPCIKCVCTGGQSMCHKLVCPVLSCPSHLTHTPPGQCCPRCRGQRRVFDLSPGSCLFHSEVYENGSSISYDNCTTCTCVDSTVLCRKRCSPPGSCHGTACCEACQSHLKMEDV

Tests used:
Details in all cases: both partners purified
[1] = target: T1, Chordin, full-length, mouse (mouse, UniProt Q9Z0E2 27-948); experiment: SPR; BIAcore 2000; Chordin immobilised, CV2 proteins perfused; apparent KD from koff/kon; 6 to 9 analyte concentrations, at least three independent experiments
T1 construct: Chordin, mouse, full-length; source: SF9 cells, purified as described [12]
T1 sequence (looked up): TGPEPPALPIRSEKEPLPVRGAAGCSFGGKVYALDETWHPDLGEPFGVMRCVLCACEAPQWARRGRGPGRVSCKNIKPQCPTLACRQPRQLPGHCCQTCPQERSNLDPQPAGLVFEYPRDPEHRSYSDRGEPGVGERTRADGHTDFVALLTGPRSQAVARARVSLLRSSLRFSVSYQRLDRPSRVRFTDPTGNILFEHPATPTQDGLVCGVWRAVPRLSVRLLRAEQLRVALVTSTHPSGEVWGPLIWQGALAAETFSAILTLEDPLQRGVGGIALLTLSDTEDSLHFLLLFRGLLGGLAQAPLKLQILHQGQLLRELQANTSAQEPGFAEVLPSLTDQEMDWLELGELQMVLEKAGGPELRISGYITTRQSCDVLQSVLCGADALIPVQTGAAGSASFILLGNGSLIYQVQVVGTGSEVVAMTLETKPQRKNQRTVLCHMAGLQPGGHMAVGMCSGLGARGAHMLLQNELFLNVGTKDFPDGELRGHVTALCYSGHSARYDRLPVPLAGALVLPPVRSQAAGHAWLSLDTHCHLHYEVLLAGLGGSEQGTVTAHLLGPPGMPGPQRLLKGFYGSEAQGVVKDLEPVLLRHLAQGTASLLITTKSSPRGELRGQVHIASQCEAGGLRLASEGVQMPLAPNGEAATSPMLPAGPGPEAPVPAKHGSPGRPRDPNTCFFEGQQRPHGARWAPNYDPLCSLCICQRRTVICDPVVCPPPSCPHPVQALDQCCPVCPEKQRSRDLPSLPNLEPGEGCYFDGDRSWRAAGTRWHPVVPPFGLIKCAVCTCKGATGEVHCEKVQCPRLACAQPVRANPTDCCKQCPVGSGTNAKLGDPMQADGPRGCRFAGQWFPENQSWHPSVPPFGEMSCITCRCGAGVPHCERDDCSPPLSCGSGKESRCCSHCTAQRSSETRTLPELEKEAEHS

[2] = target: T2, BMP2, human (human, UniProt P12643 283-396); experiment: SPR; BIAcore 2000; BMP2 immobilised, CV2 proteins perfused; apparent KD from koff/kon; 6 to 9 analyte concentrations, at least three independent experiments
T2 construct: Bone morphogenetic protein 2 (BMP2), human; The discussion speaks of 'the BMP dimer'; also called Bone morphogenetic protein 2; source: E. coli, purified as described [40]

[3] = target: T3, VWC2 domain of Chordin, mouse (mouse); experiment: SPR; BIAcore 2000; VWC2 domain of Chordin immobilised, CV2 proteins perfused; apparent KD from koff/kon; 6 to 9 analyte concentrations, at least three independent experiments
T3 construct: Chordin, mouse, von Willebrand factor type C domain 2 (VWC2); also called Chordin VWC2; VWC2 of Chordin; source: SF9 cells, purified as described [12]

T2 sequence (P12643 283-396): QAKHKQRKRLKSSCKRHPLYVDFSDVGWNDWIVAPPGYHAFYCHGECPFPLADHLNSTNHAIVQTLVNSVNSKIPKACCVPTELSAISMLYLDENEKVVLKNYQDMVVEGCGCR

Row | Binder | Kd [1] [nM] | Kd [2] [µM] | Kd [3] [nM]
1 | B1 | 178 | 50 | 180
2 | B2 | 180 | 0.021 | 145
